These results are taken from article PMC10542384.

To fix the notation:
B1: HA-RNF111 wild type (HA-RNF111^WT) in RNF111 KO U2OS cells [not stated] / Arkadia-like 1 (ARKL1) [human (endogenous in U2OS)] (parent)
chain 1: MSQWTPEYNELYTLKVDMKSEIPSDAPKTQESLKGILLHPEPIGAAKSFPAGVEMINSKVGNEFSHLCDDSQKQEKEMNGNQQEQEKSLVVRKKRKSQQAGPSYVQNCVKENQGILGLRQHLGTPSDEDNDSSFSDCLSSPSSSLHFGDSDTVTSDEDKEVSVRHSQTILNAKSRSHSARSHKWPRTETESVSGLLMKRPCLHGSSLRRLPCRKRFVKNNSSQRTQKQKERILMQRKKREVLARRKYALLPSSSSSSENDLSSESSSSSSTEGEEDLFVSASENHQNNPAVPSGSIDEDVVVIEASSTPQVTANEEINVTSTDSEVEIVTVGESYRSRSTLGHSRSHWSQGSSSHASRPQEPRNRSRISTVIQPLRQNAAEVVDLTVDEDEPTVVPTTSARMESQATSASINNSNPSTSEQASDTASAVTSSQPSTVSETSATLTSNSTTGTSIGDDSRRTTSSAVTETGPPAMPRLPSCCPQHSPCGGSSQNHHALGHPHTSCFQQHGHHFQHHHHHHHTPHPAVPVSPSFSDPACPVERPPQVQAPCGANSSSGTSYHEQQALPVDLSNSGIRSHGSGSFHGASAFDPCCPVSSSRAAIFGHQAAAAAPSQPLSSIDGYGSSMVAQPQPQPPPQPSLSSCRHYMPPPYASLTRPLHHQASACPHSHGNPPPQTQPPPQVDYVIPHPVHAFHSQISSHATSHPVAPPPPTHLASTAAPIPQHLPPTHQPISHHIPATAPPAQRLHPHEVMQRMEVQRRRMMQHPTRAHERPPPHPHRMHPNYGHGHHIHVPQTMSSHPRQAPERSAWELGIEAGVTAATYTPGALHPHLAHYHAPPRLHHLQLGALPLMVPDMAGYPHIRYISSGLDGTSFRGPFRGNFEELIHLEERLGNVNRGASQGTIERCTYPHKYKKVTTDWFSQRKLHCKQDGEEGTEEDTEEKCTICLSILEEGEDVRRLPCMHLFHQVCVDQWLITNKKCPICRVDIEAQLPSES
chain 2: MKMEEAVGKVEELIESEAPPKASEQETAKEEDGSVELESQVQKDGVADSTVISSMPCLLMELRRDSSESQLASTESDKPTTGRVYESDSSNHCMLSPSSSGHLADSDTLSSAEENEPSQAETAVEGDPSGVSGATVGRKSRRSRSESETSTMAAKKNRQSSDKQNGRVAKVKGHRSQKHKERIRLLRQKREAAARKKYNLLQDSSTSDSDLTCDSSTSSSDDDEEVSGSSKTITAEIPDGPPVVAHYDMSDTNSDPEVVNVDNLLAAAVVQEHSNSVGGQDTGATWRTSGLLEELNAEAGHLDPGFLASDKTSAGNAPLNEEINIASSDSEVEIVGVQEHARCVHPRGGVIQSVSSWKHGSGTQYVSTRQTQSWTAVTPQQTWASPAEVVDLTLDEDSRRKYLL

Variants of B1 are the subject of the test. Briefly: proximity ligation assay (PLA). Conditions: with Arkadia-like 1 (ARKL1) [human (endogenous in U2OS)]; RNF111 KO U2OS cells complemented with vector (n = 19), HA-RNF111WT (n = 18), HA-RNF111 K237/238R (n = 28); antibodies to HA and ARKL1; parent: 7.5; read off a plot.
Turning to chain 1 K237R K238R, the response (PLA foci per cell) turned out to be 3.2.
